The target in assay [1] is Tn antigen (GalNAc alpha-O-Ser/Thr of a polypeptide chain) at the surface of human tumor cells. Nature of the assay: flow cytometry, biotinylated IVIG control and SA-PE on EpCam+CD45- ovarian cancer cells from patient ascitis.
The target is the same in assay [2]. Nature of the assay: flow cytometry, biotinylated chi-83D4 preincubated with GalNac (1 M), SA-PE, EpCam+CD45- ovarian cancer cells from patient ascitis. Background: Flow cytometry measures light scatter and fluorescence of single cells or particles in a stream.
The target is the same in assay [3]. Briefly: flow cytometry, biotinylated chi-83D4 and SA-PE on EpCam+CD45- ovarian cancer cells from patient ascitis (one representative patient).
Assay [4] has the same target. Nature of the assay: flow cytometry MFI against antibody concentration on Shin3 cells. Further details: unit not given here.
The target is the same in assay [5]. Nature of the assay: flow cytometry MFI against antibody concentration on Jurkat cells. Also on record: unit not given here.
The target in assay [6] is Tn antigen (GalNAc alpha-O-Ser/Thr of a polypeptide chain) at the plasma membrane of murine tumor cell lines. Briefly: flow cytometry MFI against antibody concentration on TA3HA cells.
The target in assay [7] is Tn antigen (GalNAc alpha-O-Ser/Thr of a polypeptide chain) at the surface of human tumor cells. Nature of the assay: immunohistochemistry, biotinylated chi-83D4 and avidin-HRP on 3 primary ovarian serous adenocarcinomas.

For the molecule “Intravenous immunoglobulin (Tegeline, IVIG) (antibody)”, the MFI in assay [1] stood at 1810.

B1: chimeric anti-Tn (chi-83D4) mAb (antibody, human IgG1, kappa, V domains shown)
VH: QVQLQQSDAELVKPGASVKISCKASGYTFTDHAIHWVKQKPEQGLEWIGYFSPGNGDIKYNEKFKGKATLTADKSSSTAYMQLNSLTSEDSAVYFCKRSYGNYDYWGQGTTLTVSS
VL: DILLTQSPAILSVSPGERVSFSCRASQNIGTSIHWYQQRTNGSPRLLIKYASESVSGIPSRFSGSGSGTDFTLSINSVESEDIADYYCQHTNSWPTTFGGGTKLEIKR
In the case of B1, the values for the MFI in assay [2] and in assay [3] were 1830 and 4490, respectively. The saturating concentration in assay [4] turned out to be 20; in assay [5] it was 70; in assay [6] it was 50 mg/mL. In addition, the percent of tumor cells labeled in assay [7] lay within 70 to 80%.
